Key:
[1] = molecular target: T1, recombinant human PD-1 Fc chimera (human, UniProt Q15116 25-167); test: HTRF inhibition; strep-tagged PD-L1 vs PD-1-Fc
T1 construct: Bought protein; also called human PD-1-huFc; huPD-1-Fc; not shown: human Fc
Experimental: All samples and reagents were prepared in HTRF assay buffer containing PBS, 0.1% (w/v) BSA and 0.4M Potassium Fluoride. […] Total binding controls containing periplasmic extract sample buffer and non-specific binding controls containing excess untagged competitor were set up on each plate for data normalisation. Time-resolved fluorescent emission at 620 nm and 665 nm was measured following excitation at 337 nm on the BMG PHERAstar plate reader. Data was expressed as a % of the total binding control (% control) after subtraction of the background signal determined from the non-specific binding control wells.

[2] = molecular target: T1, recombinant human PD-1 Fc chimera; test: HTRF inhibition; biotinylated PD-L2-Fc vs Eu-cryptate PD-1-Fc
[3] = molecular target: T2, human PD-1 expressed on cells (CHO human PD-1 cells) (human, UniProt Q15116 21-288); test: FMAT inhibition; 100 pM PD-L1-Fc on CHO human PD-1 cells
T2 construct: also called CHO TREX human PD-1 cell line; CHO PD-1
Experimental: (§1) All reagents and serially diluted VH were prepared in FMAT assay buffer. […] Plates were incubated for 2 hours at room temperature then fluorescence measured in the FL2 (502 nm-537 nm) and FL5 (677-800 nm) channels on the Mirrorball plate reader (TTP) following excitation at 488 nm and 640 nm. Data was expressed as a % of the total binding control (i.e. % control) after subtraction of the background signal determined from the non-specific binding control wells.

[4] = molecular target: T2, human PD-1 expressed on cells (CHO …); test: FMAT epitope competition on CHO human PD-1 cells; competitor 1 nM 1.1-Strep
Experimental: For the epitope competition assay reagents were prepared in FMAT assay buffer. […] Plates were incubated for a minimum of 1.5 hours at room temperature then fluorescence measured in the FL2 (502 nm-537 nm) and FL5 (677-800 nm) channels on the Mirrorball plate reader (TTP) following excitation at 488 nm and 640 nm. Data was expressed as a % of the total binding control (i.e. % control) after subtraction of the background signal determined from the non-specific binding control wells.

[5] = molecular target: T2, human PD-1 expressed on cells (CHO …); test: cell-based or functional assay
[6] = molecular target: T2, human PD-1 expressed on cells (CHO …); test: FMAT inhibition; 200 pM PD-L2 on CHO human PD-1 cells
Experimental: as §1

[7] = molecular target: T3, Strep tagged recombinant human PD-1 (human, UniProt Q15116 25-170, limits assumed); test: SPR Biacore T200, strep-tagged PD-1 amine-coupled, single cycle kinetics
T3 construct: the whole entry is named; also called strep tagged human PD-1; not shown: Strep tag
Experimental: Single cycle kinetics assays were used to study the interaction between human PD-1 with Humabody® on a Biacore T200 instrument (GE Healthcare). Strep tagged recombinant human PD-1 was amine coupled to one flow cell of a CM-5 chip to create a low density surface (14 RU) using standard Biacore reagents. For the reference flow cell, a blank immobilisation was carried out. A five-point, three-fold dilution series of each Humabody® was made with a top concentration of 25 nM. The binding kinetics were followed by flowing the Humabody® over the chip surface in HBS EP+ buffer at a flow rate of 30 μl/min. The contact time for each of the association steps was 180 seconds and the dissociation step was 3300 seconds. The data was fitted to a 1:1 binding model after double reference subtraction using the Biacore T200 Evaluation software.

T2 sequence (Q15116 21-288): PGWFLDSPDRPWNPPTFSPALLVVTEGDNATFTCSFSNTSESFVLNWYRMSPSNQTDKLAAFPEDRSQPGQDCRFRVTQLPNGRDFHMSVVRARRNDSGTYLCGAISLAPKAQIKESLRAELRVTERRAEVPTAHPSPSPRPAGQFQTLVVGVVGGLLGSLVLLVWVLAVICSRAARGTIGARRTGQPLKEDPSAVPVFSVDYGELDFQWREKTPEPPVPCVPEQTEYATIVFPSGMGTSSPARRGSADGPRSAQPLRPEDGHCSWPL
T1 sequence (Q15116 25-167 limits assumed, change not shown): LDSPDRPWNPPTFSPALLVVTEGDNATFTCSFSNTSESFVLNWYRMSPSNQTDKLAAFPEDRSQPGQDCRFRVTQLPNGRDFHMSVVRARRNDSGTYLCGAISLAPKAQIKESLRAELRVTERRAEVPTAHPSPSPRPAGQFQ
T3 sequence (Q15116 25-170 limits assumed): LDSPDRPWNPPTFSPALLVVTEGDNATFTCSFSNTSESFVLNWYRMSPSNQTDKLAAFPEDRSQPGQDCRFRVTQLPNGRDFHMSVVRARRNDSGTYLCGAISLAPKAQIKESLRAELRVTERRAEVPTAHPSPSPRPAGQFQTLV

Binder | IC50 [1] [nM] | IC50 [3] [nM] | IC50 [4] [nM] | other results
Humabody® 1.12 (VHH, human VH single domain antibody) VHH: EVQLLESGGGVVKPGGSLRLSCAASGFTFSDYYMGWIRQAPGKGLEWISYISSSGSTIYYADSVKGRFTISRDNAKNSLYLQMNSLRAEDTAVYYCAREAPLRLGESPHDAFDIWGQGTMVTVSS | 4.18 | – | – | –
Humabody® 1.15 (VHH, human VH single domain antibody) VHH: QVQLVESGGGLVKPGGSLRLSCAASGFTFSDNSMSWIRQAPGKGLEWVSYISSSGSTIYYADSVKGRFTISRDNAKNSLYLQMNTLRAEDTAVYYCAKEAPLRLGESPHDAFDIWGQGTMVTVSS | 3.78 | – | – | –
Humabody® 1.4 (VHH, human VH single domain antibody) VHH: QVQLVESGGGLVKPGGSLRLSCAASGFTFSDYYMIWMRQAPGKGLEWVSYISGGGTTKYYTDSVKGRFTISRDNAKNSLYLQMNSLRADDTAVYYCAREAPLRLGETPHDAFDIWGQGTMVTVSS | 3.13 | – | – | IC50 [2]: 14 nM
Humabody® 1.93 (VHH, human VH single domain antibody) VHH: EVQLVESGGGLVKPGGSLRLSCAASGFTFSDASMTWMRQAPGKGLEWVSYISSGGGVKFYADSVKGRFTISRDNAKNSLYLQMNSLRAEDTAVYYCAREAPLRLGESPHDAFDISGQGTMVTVSS | – | 2.12 | 1.5 | –
Humabody® 1.98 (VHH, human VH single domain antibody) VHH: EVQLVESGGGLVKPGGSLRLSCAASGFTFSDKSMTWMRQAPGKGLEWVSYISSGGGVKFYADSVKGRFTISRDNAKNSLYLQMNSLRAEDTAVYYCAREAPLRLGESPHDAFDISGQGTMVTVSS | – | 2.08 | 1.1 | Reporter Assay EC50 [5]: 6.5 nM
Humabody® 1.13 (VHH, human VH single domain antibody) VHH: EVQLLESGGGLVKPGGSLRLSCAASGFTFSDYTMTWMRQAPGKGLEWVSYISTGGTIKYYTDSVKGRFTISRDNAKNSLYLQMNSLRADDTAVYYCAREAPLRLGESPHDAFDIWGQGTMVTVSS | 17 | – | – | IC50 [2]: 10 nM
Humabody® 1.95 (VHH, human VH single domain antibody) VHH: EVQLVESGGGLVKPGGSLRLSCAASGFTFSDGSMTWMRQAPGKGLEWVSYISSGGGVKFYADSVKGRFTISRDNAKNSLYLQMNSLRAEDTAVYYCAREAPLRLGESPHDAFDISGQGTMVTVSS | – | 3.59 | 2 | –
Humabody® 1.14 (VHH, human VH single domain antibody) VHH: EVQLVESGGGLVQPGRSLRLSCAASGFTFSDYTMTWMRQAPGKGLEWVSYISTGGTIKYYTDSVKGRFTISRDNAKNSLYLQMNSLRADDTAVYYCAREAPLRLGESPHDAFDIWGQGTMVTVSS | 28.5 | – | – | –
Humabody® 1.90 (VHH, human VH single domain antibody) VHH: EVQLVESGGGLVKPGGSLRLSCAASGFTFSDVSMTWMRQAPGKGLEWVSYISSGGGVKFYADSVKGRFTISRDNAKNSLYLQMNSLRAEDTAVYYCAREAPLRLGESPHDAFDISGQGTMVTVSS | – | 3 | 1.6 | –
Humabody® 1.9 (VHH, human VH single domain antibody) VHH: QVQLVESGGGLVKPGGSLRLSCAASGFTFGDYTMTWMRQAPGKGLEWVSYISTGGTIKYYTDSVKGRFTISRDNAKNSLYLQMDSLRADDTAVYYCAREAPLRLGESPHDAFDIWGQGTMVTVSS | 0.913 | – | – | IC50 [2]: 7.5 nM
Humabody® 1.65 (VHH, human VH single domain antibody) VHH: QVQLVESGGGLVKPGGSLRLSCAASGFTFSDSSMTWMRQAPGKGLEWVSYISSGGGVKFYADSVKGRFTISRDNAKNSLYLQMNSLRADDTAVYYCAREAPLRLGESPHDAFDISGQGTMVTVSS | – | 5.8 | – | Reporter Assay EC50 [5]: 11 nM; IC50 [6]: 8.5 nM
Humabody® 1.97 (VHH, human VH single domain antibody) VHH: EVQLVESGGGLVKPGGSLRLSCAASGFTFSDISMTWMRQAPGKGLEWVSYISSGGGVKFYADSVKGRFTISRDNAKNSLYLQMNSLRAEDTAVYYCAREAPLRLGESPHDAFDISGQGTMVTVSS | – | 3.32 | 1.7 | –
Humabody® 1.63 (VHH, human VH single domain antibody) VHH: EVQLVESGGGLVKPGGSLRLSCAASGFTFSDSSMTWMRQAPGKGLEWVSYISSGGGVKFYTDSVKGRFTISRDNAKNSLYLQMNSLRADDTAVYYCAREAPLRLGESPHDAFDISGQGTMVTVSS | – | 4.5 | – | Reporter Assay EC50 [5]: 12 nM; IC50 [6]: 6.9 nM
Humabody® 1.11 (VHH, human VH single domain antibody) VHH: EVQLLESGGGLVKPGGSLRLSCAASGFTFSDYDMTWIRQAPGKGQEWVSYISRGGSTKYYADSVKGRFTISRDNAKNSLYLQMNSLRAEDTAVYYCAREAPLRLGETPHDAFDIWGQGTMVTVSS | 5.16 | – | – | –
Humabody® 1.5 (VHH, human VH single domain antibody) VHH: EVQLVESGGGLVKPGGSLRLSCAASGFTFSDYTMTWMRQAPGKGLEWVSYISTGGNTKYYTDSVKGRFTISRDNAKNSLYLQMNSLRADDTAVYYCAREAPLRLGESPHDAFDIWGQGTMVTVSS | 2.66 | – | – | IC50 [2]: 22 nM
Humabody® 1.62 (VHH, human VH single domain antibody) VHH: QVQLVESGGGLVKPGGSLRLSCAASGFTFSDSSMTWMRQAPGKGLEWVSYISSGGAVKFYTDSVKGRFTISRDNAKNSLYLQMNSLRADDTAVYYCAREAPLRLGESPHDAFDISGQGTMVTVSS | – | 5.7 | – | Reporter Assay EC50 [5]: 14 nM; IC50 [6]: 10 nM
Humabody® 1.99 (VHH, human VH single domain antibody) VHH: EVQLVESGGGLVKPGGSLRLSCAASGFTFSDRSMTWMRQAPGKGLEWVSYISSGGGVKFYADSVKGRFTISRDNAKNSLYLQMNSLRAEDTAVYYCAREAPLRLGESPHDAFDISGQGTMVTVSS | – | 1.86 | 1.4 | Reporter Assay EC50 [5]: 4.2 nM
Humabody® 1.91 (VHH, human VH single domain antibody) VHH: EVQLVESGGGLVKPGGSLRLSCAASGFTFSDQSMTWMRQAPGKGLEWVSYISSGGGVKFYADSVKGRFTISRDNAKNSLYLQMNSLRAEDTAVYYCAREAPLRLGESPHDAFDISGQGTMVTVSS | – | 3.56 | 1.4 | –
Humabody® 1.100 (VHH, human VH single domain antibody) VHH: EVQLVESGGGLVKPGGSLRLSCAASGFTFSDLSMTWMRQAPGKGLEWVSYISSGGGVKFYADSVKGRFTISRDNAKNSLYLQMNSLRAEDTAVYYCAREAPLRLGESPHDAFDISGQGTMVTVSS | – | 2.61 | 1.5 | –
Humabody® 1.80 (VHH, human VH single domain antibody) VHH: EVQLVESGGGLVKPGGSLRLSCAASGFTFSDSSMTWMRQAPGKGLEWVSYISSGGGVKFYADSVKGRFTISRDNAKNSLYLQMNSLRAEDTAVYYCAREAPLRLGESPHDAFDISGQGTMVTVSS | – | 1.82 | – | Kd [7]: 0.0297 nM; koff [7]: 5.2e-05 s⁻¹; kon [7]: 1.76e+06 M⁻¹ s⁻¹
Humabody® 1.96 (VHH, human VH single domain antibody) VHH: EVQLVESGGGLVKPGGSLRLSCAASGFTFSDTSMTWMRQAPGKGLEWVSYISSGGGVKFYADSVKGRFTISRDNAKNSLYLQMNSLRAEDTAVYYCAREAPLRLGESPHDAFDISGQGTMVTVSS | – | 2.45 | 1.6 | Kd [7]: 0.08 nM; koff [7]: 0.00012 s⁻¹; kon [7]: 1.52e+06 M⁻¹ s⁻¹
